Source: the RNAGym collection of RNA variant scans (doi:10.7554/elife.80360)

B1: Hairpin Ribozyme (parent)
chain: GUCCUCUUUCACGUGCGCGUGAAAGAGAGAAGUGAACCAGAGAAACACACGUUGUGGUAUAUUACCUGGUA

Variants of: B1
Assay: self-cleavage, relative activity (ratio to wild type); higher = more cleavage; co-transcriptional

| Variant | self-cleavage |
| --- | --- |
| A24C G54U | 0.534 |
| A24C G54C | 0.313 |
| A22U G27A | 0.283 |
| A22U G27U | 0.187 |
| A22U G27C | 0.178 |
| A23U G69U | 0.247 |
| A23C G29U | 0.0906 |
| A23C G29A | 0.177 |
| A23U G68U | 0.197 |
| A24G G40C | 0.188 |
| A24G G40A | 0.338 |
| A22U A36U | 0.58 |
| A23G G29U | 0.164 |
| A22G U70C | 0.57 |
| A23G A35G | 0.939 |
| A24G A44U | 0.0876 |
| A24G A44C | 0.0644 |
| A24G A36G | 0.679 |
| A24C C48A | 0.172 |
| A23U G54C | 0.551 |
| A23U G54U | 0.538 |

| Variant | self-cleavage |
| --- | --- |
| A24G A45U | 0.145 |
| A24G A45C | 0.235 |
| A23G C66A | 0.246 |
| A23G C66G | 0.265 |
| A23U G57A | 0.116 |
| A24C G57A | 0.24 |
| A22U U62G | 0.147 |
| A24G A49C | 0.163 |
| A22U A23C | 0.733 |
| A22U A23G | 0.72 |
| A23C A71G | 0.936 |
| A23C A71C | 1.16 |
| A24C | 0.894 |
| A24G | 0.87 |
| A24C C46G | 0.105 |
| A24C C46U | 0.142 |
| A24C C46A | 0.134 |
| A23U G51U | 0.893 |
| A23U A30G | 0.228 |
| A23U A30C | 0.201 |
| A24C U33C | 0.16 |

| Variant | self-cleavage |
| --- | --- |
| A24C G32C | 0.131 |
| A24C G32A | 0.161 |
| A23C A45U | 0.207 |
| A22G G32A | 0.0872 |
| A22G G32U | 0.0605 |
| A23C G51U | 0.993 |
| A24C G27U | 0.284 |
| A23C A30U | 0.118 |
| A23C A30G | 0.184 |
| A24C A44G | 0.104 |
| A22G U58A | 0.657 |
| A22U A26U | 0.907 |
| A22U A26C | 0.479 |
| A22U U53A | 0.859 |
| A22U U53C | 0.897 |
| A24G A64C | 0.17 |
| A24G G54C | 0.458 |
| A23U A49G | 0.356 |
| A23G U53A | 0.727 |
| A22U G29C | 0.214 |
| A22U G29U | 0.071 |

| Variant | self-cleavage |
| --- | --- |
| A22U U55C | 0.178 |
| A22U U55A | 0.255 |
| A23C A26U | 0.499 |
| A23C A26G | 1.01 |
| A22U A35U | 0.611 |
| A22U A35G | 0.84 |
| A22U A35C | 0.762 |
| A24C A35U | 0.938 |
| A22U A44U | 0.173 |
| A22G U52G | 0.692 |
| A22G U52C | 0.791 |
| A23G A28C | 0.641 |
| A22U A45C | 0.179 |
| A22U A45G | 0.225 |
| A22U U52A | 0.836 |
| A22U C48U | 0.0855 |
| A22U C48G | 0.111 |
| A23U G34C | 1.12 |
| A23C A64C | 0.0802 |
| A23C A64U | 0.118 |
